Test results from US20240352105A1, “COMPOSITIONS AND METHODS FOR NEUTRALIZING ANTIGENS” (PACAGEN, INC, priority 2023, published 2024).

Assays:
[1] = molecular target: T1, recombinant His-tagged Can f2 (dog (Canis familiaris), UniProt O18874 19-180); experiment: ELISA, antigen coated
T1 construct: also called Can f2-His; recombinant Can f2; not shown: His tag
T1 sequence (looked up): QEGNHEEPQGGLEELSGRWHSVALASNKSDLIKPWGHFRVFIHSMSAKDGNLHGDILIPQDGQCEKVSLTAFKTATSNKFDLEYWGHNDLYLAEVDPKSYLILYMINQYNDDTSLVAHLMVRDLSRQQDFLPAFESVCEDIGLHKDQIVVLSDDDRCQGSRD
Description: (§1) 2 microgram per milliliter (μg/mL) target antigen is coated in a 96-well plate and ELISA assay is performed after incubation with candidate VHHs. The binding EC50 of each clone is calculated using Prism GraphPad. The positive control antibody is involved as an internal control.
(§2) Isolated VHH clones were further validated by performing an ELISA assay as described in Example 1. Metrics of thermostability including melting temperature (Tₘ), onset temperature (Tₒₙₛₑₜ), and temperature of aggregation (Tagg), were also tested with increasing temperature in the range of 20° C.-95° C. at the speed of 1° C./min. The individual binding curves are shown for each candidate in FIGS. 7B-7P.

[2] = molecular target: T2, recombinant His-tagged Der p1 (dust mite, UniProt P08176 99-320, limits assumed); experiment: ELISA, antigen coated on plate
T2 construct: Recombinant His-tagged protein made by the applicant; also called Der p1-His; Der pl; not shown: His tag
T2 sequence (looked up): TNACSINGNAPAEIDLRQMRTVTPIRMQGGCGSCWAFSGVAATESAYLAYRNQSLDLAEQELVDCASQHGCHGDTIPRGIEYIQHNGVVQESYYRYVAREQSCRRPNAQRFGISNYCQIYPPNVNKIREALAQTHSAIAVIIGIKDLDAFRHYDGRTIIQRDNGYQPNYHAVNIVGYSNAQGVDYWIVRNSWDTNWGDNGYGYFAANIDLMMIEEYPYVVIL
Description: as §1
Isolated VHH clones were further validated by performing an ELISA assay as described in Example 1. The individual binding curves are shown for each candidate in FIGS. 9A-9K.

[3] = Thermostability (Tm, Tonset, Tagg) by Nanotemper DSF; assay type: physicochemical; set-up: key to Tm2 / Tagg / Tm1 / Tm / Tm3 / Tonset / Tonset ø (mean) / Tagg ø (mean): temperatures in °C; details: for Tm1: first melting point; for Tm2: second melting point; for Tm3: third melting point; for Tm: single melting point
Description: as §2, with “(Tm),” for “(Tₘ),”, “(Tonset),” for “(Tₒₙₛₑₜ),”, “C./min. These measurements were performed using a Nanotemper DSF. When applicable, Tm1 refers to the first melting point observed, Tm2 refers to the second melting point observed, etc., Sequence information for the VHH clones and the binding assay results are summarized in Table 3.” for “C./min.”, “3B-3I.” for “7B-7P.”
as §2, with “(Tm),” for “(Tₘ),”, “(Tonset),” for “(Tₒₙₛₑₜ),”, “5B-5H.” for “7B-7P.”
as §2, with “(Tm),” for “(Tₘ),”, “(Tonset),” for “(Tₒₙₛₑₜ),”
The detailed thermostability graphs used to determine the Tm, Tonset, and Tagg are illustrated in FIGS. 19A-19I and raw data is summarized in Table 23. Any subsequent melting points observed (Tm1, Tm2, Tm3, etc.) are separated by commas.

[4] = anti-Can f2 VHH, 20° C.-95° C. at 1° C./min
[5] = anti-Can f2 VHH, in °C (unit assumed)
[6] = Average of two replicates, anti-Fel d1 VHH

B1: SDAB22118-3-F08 (VHH)
VHH: QVQLVESGGGLVQPGESLRLSCAASGSIFSIYRMGWYRQAPGEQREHVATVTSGGGTGYADSVKGRFTIYRDNAKNTVYLQMNSLKPEDTAVYSCYAIPKSWSRTSEYSWGQGTQVTVSS
notes: anti-Can f2 alpaca VHH; prokaryotic expression
EC50 [1]: 0.0595 µg/mL

B2: SDAB22129-55-35-46-49-1-A04 (VHH)
VHH: QLQLVESGGGLVQPGGSLRLSCAASGRVYNSWTMAWFRQAPGKEREFVGAFSLLDSGTRYADSLKDRVAISRDDAANTQWLQLSALKPEDTAVYYCAAKSGTIRATSEGQYNYWGQGIQVTVSS
notes: Expressed from a prokaryotic vector
EC50 [2]: 3.41 µg/mL

B3: SDAB22129-55-35-46-49-1-A03 (VHH)
VHH: QVQLVESGGGLVQAGGSLRLSCAVSGRTVSRNVMGWFRQAPGKEREFVAGIGFSGGSTYYADSVKGRFTISRDNAKNTVYLEMNRLQPEDTAVYYCAAPSLPLLTSDLHDYDYWGQGTQVTVSS
notes: as for B2
EC50 [2]: 0.0291 µg/mL

B4: SDAB22118-189-192-1-E08 (VHH)
VHH: AVQLVESGGGLVQPGGSLRLSCVASGSSSRNYAMGWYRQAPGNEREFVAVITSRGYTHYANSVSGRFTISRDHAKDTAYLQMNSLKPEDTAVYYCNTQAGLLPFMTVYDWGTGTQVTVSS
notes: as for B1
EC50 [1]: 0.00411 µg/mL

B5: SDAB22129-55-35-46-49-1-D04 (VHH)
VHH: QLQLVESGGGLVQPGGSLRLSCVISGGTFHPYPIGWFREAPGKEREGVLCINSGGQSEISANSAHDPKYADSVKGRFTISRDNAANTVYLQMNNLEPGDTAVYYCAAPREIYVDPYCPTYAYEYWGQGTQVTVSA
EC50 [2]: 0.0621 µg/mL

B6: SDAB22118-3-G05 (VHH)
VHH: AVQLVESGGGLVQAGGSLRLSCAASGRTFNNSVMGWFRQAPGKEREFVAAISRSGAFAHYAESVEGRFTISRDNAKNTVYLQMNSLKPEDTAVYYCAAGAILLPTERRYDYWGQGTQVTVSS
notes: as for B1
EC50 [1]: 0.149 µg/mL

B7: SDAB22118-1-D05 (VHH)
VHH: QVQLVESGGGLVQAGGSLGLSCAASGRTFNNYVMGWFRQAPGKEREFVAAISRSGSFTHYAEAVQGRFTISRDNAKITVYLQMNSLKPEDTAVYYCAAGAILMPTERTYDYWGQGTQVTVSS
notes: as for B1
Tagg [3, 4]: 39.54 | Tm1 [3, 5]: 48.35 | Tm2 [3, 5]: 58.58 | Tm3 [3, 5]: 64.58 | EC50 [1]: 0.0762 µg/mL

B8: SDAB22118-1-F04 (VHH)
VHH: QVQLVESGGGLVQPGGSLRLSCAYSGFTLDNNVIGWFRQAPGKEREFVAAISRSGAFTHYTESVQGRFTISRDNAKNTVYLQMNSLKPEDTAVYYCAAGAILLPTERRYDYWGQGTQVTVSS
notes: as for B1
Tagg [3, 4]: 48.08 | Tm [3, 5]: 58.63 | EC50 [1]: 0.0639 µg/mL

B9: SDAB22118-189-192-1-H03 (VHH)
VHH: EVQLVESGGGLVQARGSLRLSCAASGRTFNNYAMGWFRQAPGKEREFVAAIASNTGTTYYAGSVKGRFAISRDNAKNTVDLHMNSLKPEDTAVYYCALGPLRLGWWYDSRPYDYWGQGTQVTVSS
notes: as for B1
EC50 [1]: 0.0575 µg/mL

B10: SDAB22118-3-B02 (VHH)
VHH: AVQLVDSGGGLVQPGGSLRLSCAASGRTFSYYAMGWFRQALGKEREFVAASSRTGRVTNYADSVKGRFTISRDNAKNTVYLQMNSLKPEDTAIYYCAADDRFYGGDNPAFYNSWGQGTQVTVSS
notes: as for B1
EC50 [1]: 0.00759 µg/mL

B11: SDAB22118-3-D01 (VHH)
VHH: QVQLVESGGGLVQAGDSLRLSCAASGRSFSNYVMNWFRQAPGKEREFVAAISRSGRSTFYADSVKGRFTISRDNPKATVYLQMNSLVIEDTAVYFCAAASDITSMRSLAAITSWGQGTQVIVSS
notes: as for B1
EC50 [1]: 0.429 µg/mL

B12: SDAB22118-1-D08 (VHH)
VHH: EVQLVESGGGLVQPGGSLRLSCVVSGSIFSDNAMGWYRQAPGKQREMVAIISSVGTTNNVDSVNGRFTISRDNAKNTVYLQMNSLKPEDTAVYYCKDFSAPRYWGQGTQVTVSS
notes: as for B1
Tagg [3, 4]: 40.82 | Tm1 [3, 5]: 38.89 | Tm2 [3, 5]: 43.62 | Tm3 [3, 5]: 54.69 | EC50 [1]: 0.0486 µg/mL

B13: SDAB22118-189-192-1-C05 (VHH)
VHH: QVQLVESGGGGVQAGGSLRLSCVASQSHFGYNVMGWYRQAPGRQRELVATIISSGGTNYADSVKGRFTISRDNAKNTVHLSMDSLNVEDTAVYFCYAKGVWLGREYWGQGTQVTVSS
notes: as for B1
EC50 [1]: 0.0325 µg/mL

B14: SDAB22118-1-B11 (VHH)
VHH: AVQLVESGGGLVQPGGSLRLSCAASGFTFSNYYMSWYRQAPGKEREWVAFITSTGSSTNYANSVKGRFTASRDNAKNTVYLQMNSLKPEDTAVYYCKTRLWGNDYWGKGTLVTVSS
notes: as for B1
Tagg [3, 4]: 44.54 | Tm [3, 5]: 55.17 | EC50 [1]: 0.164 µg/mL

B15: SDAB22118-2-G01 (VHH)
VHH: AVQLVDSGGGLVQAGDSLRLSCVASGRTFSSYVMGWFRQAPGKERLIVATISKSGSLTHYADSVEGRFTISRDNAKNTVYLQMNSLEPEDTAVYYCTPVSDLTGRRLGSYWGQGTQVTVSS
notes: as for B1
Tagg [3, 4]: 38.93 | Tm [3, 5]: 43.71 | EC50 [1]: 0.0736 µg/mL

B16: DAB22110-1-1-C3 (protein)
VHH: QLQLVESGGGLVQPGGSLRLSCEASGFTFKYYTMSWYRQAPGKERELVATITNGDRTNYADSVKGRFTISRDNAKNTLYLQMNSLKPYDTAVYYCNRHLPLLQIWGQGTQVTVSS
Tagg ø (mean) [3, 6]: 58.93 | Tonset ø (mean) [3, 6]: 58.06 | Tm ø (mean), first melting point (Tm1) ([3]; Average of two replicates, anti-Fel d1 VHH, in °C (unit assumed)): 66.50 | Tagg ([3]; Replicate 1): 59.02 | Tonset ([3]; Replicate 1): 58.17 | Tm, first melting point (Tm1) ([3]; Replicate 1, in °C (unit assumed)): 66.50 | Tagg ([3]; Replicate 2): 58.85 | Tonset ([3]; Replicate 2): 57.94 | Tm, first melting point (Tm1) ([3]; Replicate 2, in °C (unit assumed)): 66.51

B17: SDAB22118-189-192-1-E09 (VHH)
VHH: EVQLVESGGGLVQPGGSLRLSCAASGTIFLINRMGWYRQAPGKQRELVATSFTSGNSTMYADSVKGRFTISRDNAKKTVYLQMNSLKPEDTAVYYCKARISRRYGNWDDYWGQGTQVTVSS
notes: as for B1
EC50 [1]: 0.0571 µg/mL

B18: SDAB22118-189-192-1-C10 (VHH)
VHH: EVQLVESGGGLVQAGGSLRLSCAASGRTFSEYIMGWFRQAPGKERVFVSTISKSGAITNYADSVQGRFTISRDNAKNTVYLQMNSLKPEDSAVYYCAAGPLLSPAGRQYDYWGQGTQVTVSS
notes: as for B1
EC50 [1]: 0.0217 µg/mL

B19: SDAB22118-189-192-1-E10 (VHH)
VHH: AVQLVDSGGGLVQTGGSLRLSCAASGTIFSINRMAWYRQAPGKQRELVASIFFSGGITHYADFVKGRFTISRDNAKNTMYLQMNSLKPEDTAVYYCKGVIAPNYRRTSNFQDYWGQGTQVTVSS
notes: as for B1
EC50 [1]: 0.0427 µg/mL

B20: SDAB22129-55-35-46-49-1-G09 (VHH)
VHH: QVKLEESGGGAVQPGGSLRLSCTASGQTFSNYIISWFRQAPGKEREFVVGISKSGGRTYYADSAKGRFTISRDNAKNTVYLQMSSLKPEDTAVYYCAADGLVLTAAAAEYDYWGQGTQVTVSS
notes: as for B2
EC50 [2]: 0.154 µg/mL
